In patent US20250218531A1 (ABSCI, published 2025):
Positions count from the first letter of the chain named.

B1: Trastuzumab HCDR3 variant AKYGISDYGFDH (Fab, V domains shown)
VH: EVQLVESGGGLVQPGGSLRLSCAASGFNIKDTYIHWVRQAPGKGLEWVARIYPTNGYTRYADSVKGRFTISADTSKNTAYLQMNSLRAEDTAVYYCAKYGISDYGFDHWGQGTLVTVSS
VL: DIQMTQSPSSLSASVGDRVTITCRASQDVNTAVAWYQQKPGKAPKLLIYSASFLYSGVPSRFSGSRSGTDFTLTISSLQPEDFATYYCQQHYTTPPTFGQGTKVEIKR
B2: Trastuzumab HCDR3 variant ARGYYYYQWYYY (Fab, V domains shown)
VH: EVQLVESGGGLVQPGGSLRLSCAASGFNIKDTYIHWVRQAPGKGLEWVARIYPTNGYTRYADSVKGRFTISADTSKNTAYLQMNSLRAEDTAVYYCARGYYYYQWYYYWGQGTLVTVSS
VL: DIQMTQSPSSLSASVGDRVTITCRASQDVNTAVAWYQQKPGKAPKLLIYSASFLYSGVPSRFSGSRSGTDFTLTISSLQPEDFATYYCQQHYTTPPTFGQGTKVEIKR
B3: Trastuzumab HCDR3 variant ARYPYGYYAMDY (Fab, V domains shown)
VH: B2 VH with G99Y, Y100P, Y102G, Q104Y, W105A, Y106M, Y107D
VL: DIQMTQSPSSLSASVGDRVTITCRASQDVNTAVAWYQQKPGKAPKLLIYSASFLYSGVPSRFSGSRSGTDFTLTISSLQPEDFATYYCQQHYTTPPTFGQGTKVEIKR
B4: Trastuzumab HCDR3 variant ARSTDYWHASQY (Fab, V domains shown)
VH: B2 VH with G99S, Y100T, Y101D, Y103W, Q104H, W105A, Y106S, Y107Q
VL: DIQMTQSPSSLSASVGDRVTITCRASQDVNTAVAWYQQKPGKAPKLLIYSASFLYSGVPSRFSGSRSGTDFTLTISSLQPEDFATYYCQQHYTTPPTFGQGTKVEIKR
B5: Trastuzumab HCDR3 variant ARYHYSGYFMDS (Fab, V domains shown)
VH: B1 VH with K98R, G100H, I101Y, D103G, G105F, F106M, H108S
VL: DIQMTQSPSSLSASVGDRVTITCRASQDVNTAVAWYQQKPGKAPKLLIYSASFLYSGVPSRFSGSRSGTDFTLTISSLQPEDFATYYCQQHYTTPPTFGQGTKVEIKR
B6: Trastuzumab HCDR3 variant ARHGSYYYDFDF (Fab, V domains shown)
VH: B1 VH with K98R, Y99H, I101S, S102Y, D103Y, G105D, H108F
VL: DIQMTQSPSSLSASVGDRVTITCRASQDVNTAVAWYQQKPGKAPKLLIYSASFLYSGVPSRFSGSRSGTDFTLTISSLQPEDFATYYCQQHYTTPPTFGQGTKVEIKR
B7: Trastuzumab HCDR3 variant ARSEWFWGSFAY (Fab, V domains shown)
VH: B2 VH with G99S, Y100E, Y101W, Y102F, Y103W, Q104G, W105S, Y106F, Y107A
VL: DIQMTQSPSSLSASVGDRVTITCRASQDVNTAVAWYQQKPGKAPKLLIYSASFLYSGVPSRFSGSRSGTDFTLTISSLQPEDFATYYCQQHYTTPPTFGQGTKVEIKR
B8: Trastuzumab HCDR3 variant ARYYGYYYYMDY (Fab, V domains shown)
VH: B2 VH with G99Y, Y101G, Q104Y, W105Y, Y106M, Y107D
VL: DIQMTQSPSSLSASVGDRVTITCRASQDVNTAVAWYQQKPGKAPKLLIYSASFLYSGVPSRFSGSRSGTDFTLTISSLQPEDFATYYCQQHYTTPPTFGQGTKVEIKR
B9: Trastuzumab HCDR3 variant ARWSWPGYEFEF (Fab, V domains shown)
VH: B1 VH with K98R, Y99W, G100S, I101W, S102P, D103G, G105E, D107E, H108F
VL: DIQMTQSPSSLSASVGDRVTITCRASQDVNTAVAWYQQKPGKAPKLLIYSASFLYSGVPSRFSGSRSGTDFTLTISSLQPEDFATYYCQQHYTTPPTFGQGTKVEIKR
B10: Trastuzumab HCDR3 variant ARYPDYYYAMDY (Fab, V domains shown)
VH: B2 VH with G99Y, Y100P, Y101D, Q104Y, W105A, Y106M, Y107D
VL: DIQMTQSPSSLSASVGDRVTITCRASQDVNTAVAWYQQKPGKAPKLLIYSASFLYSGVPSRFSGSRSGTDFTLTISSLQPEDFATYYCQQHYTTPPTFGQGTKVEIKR
B11: Trastuzumab HCDR3 variant ARYYDDTIYSFY (Fab, V domains shown)
VH: B2 VH with G99Y, Y101D, Y102D, Y103T, Q104I, W105Y, Y106S, Y107F
VL: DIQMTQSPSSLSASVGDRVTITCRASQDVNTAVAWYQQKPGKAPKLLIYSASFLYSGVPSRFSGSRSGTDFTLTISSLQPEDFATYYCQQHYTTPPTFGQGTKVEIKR
B12: Trastuzumab HCDR3 variant ARYLSYSYAWDY (Fab, V domains shown)
VH: B1 VH with K98R, G100L, I101S, S102Y, D103S, G105A, F106W, H108Y
VL: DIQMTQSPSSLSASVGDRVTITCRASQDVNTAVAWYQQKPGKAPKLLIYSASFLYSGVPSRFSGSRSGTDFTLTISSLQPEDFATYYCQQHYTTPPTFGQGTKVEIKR
B13: Trastuzumab HCDR3 variant ALYKRYDYAFGY (Fab, V domains shown)
VH: B1 VH with K98L, G100K, I101R, S102Y, G105A, D107G, H108Y
VL: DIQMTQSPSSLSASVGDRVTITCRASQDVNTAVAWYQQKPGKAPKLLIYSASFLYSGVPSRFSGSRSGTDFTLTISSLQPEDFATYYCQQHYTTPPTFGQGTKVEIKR
B14: Trastuzumab HCDR3 variant ARGYYYYFYYNY (Fab, V domains shown)
VH: B2 VH with Q104F, W105Y, Y107N
VL: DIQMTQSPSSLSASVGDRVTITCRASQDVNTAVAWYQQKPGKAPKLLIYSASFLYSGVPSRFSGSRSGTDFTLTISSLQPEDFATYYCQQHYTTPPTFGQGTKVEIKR
B15: Trastuzumab HCDR3 variant ARYPEDFYYFDV (Fab, V domains shown)
VH: B1 VH with K98R, G100P, I101E, S102D, D103F, G105Y, H108V
VL: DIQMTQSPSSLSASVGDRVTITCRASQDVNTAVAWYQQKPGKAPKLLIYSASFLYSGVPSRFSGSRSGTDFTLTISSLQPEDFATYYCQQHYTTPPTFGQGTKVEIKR
B16: Trastuzumab HCDR3 variant ARYGYYGYWFDY (Fab, V domains shown)
VH: B1 VH with K98R, I101Y, S102Y, D103G, G105W, H108Y
VL: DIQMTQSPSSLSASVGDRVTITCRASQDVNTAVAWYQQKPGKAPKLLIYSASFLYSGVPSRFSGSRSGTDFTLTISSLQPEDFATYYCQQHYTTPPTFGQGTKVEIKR
B17: Trastuzumab HCDR3 variant ARYLSYSFAWDY (Fab, V domains shown)
VH: B2 VH with G99Y, Y100L, Y101S, Y103S, Q104F, W105A, Y106W, Y107D
VL: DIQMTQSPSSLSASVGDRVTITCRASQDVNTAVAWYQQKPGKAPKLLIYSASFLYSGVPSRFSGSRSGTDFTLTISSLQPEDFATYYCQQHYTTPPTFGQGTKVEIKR
B18: Trastuzumab HCDR3 variant ARYGTYGYAMDY (Fab, V domains shown)
VH: B1 VH with K98R, I101T, S102Y, D103G, G105A, F106M, H108Y
VL: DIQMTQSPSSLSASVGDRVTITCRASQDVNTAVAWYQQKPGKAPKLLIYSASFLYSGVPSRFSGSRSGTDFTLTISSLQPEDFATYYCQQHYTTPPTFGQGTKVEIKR
B19: Trastuzumab HCDR3 variant ARWLYYGYYFDY (Fab, V domains shown)
VH: B2 VH with G99W, Y100L, Y103G, Q104Y, W105Y, Y106F, Y107D
VL: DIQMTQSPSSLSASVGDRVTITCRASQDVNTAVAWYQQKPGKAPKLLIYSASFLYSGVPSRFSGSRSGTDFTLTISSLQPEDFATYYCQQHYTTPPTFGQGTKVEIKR
B20: Trastuzumab HCDR3 variant ARYHNTGYFWGA (Fab, V domains shown)
VH: B1 VH with K98R, G100H, I101N, S102T, D103G, G105F, F106W, D107G, H108A
VL: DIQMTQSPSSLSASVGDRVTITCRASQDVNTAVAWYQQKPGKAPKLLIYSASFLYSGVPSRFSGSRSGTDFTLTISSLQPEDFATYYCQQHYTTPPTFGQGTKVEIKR
B21: Trastuzumab HCDR3 variant ARSGEGYYAFDY (Fab, V domains shown)
VH: B1 VH with K98R, Y99S, I101E, S102G, D103Y, G105A, H108Y
VL: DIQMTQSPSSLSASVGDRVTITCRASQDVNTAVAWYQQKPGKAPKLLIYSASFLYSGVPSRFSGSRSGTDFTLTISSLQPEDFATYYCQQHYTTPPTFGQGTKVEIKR
B22: Trastuzumab HCDR3 variant ARYLSYSYAWNY (Fab, V domains shown)
VH: B2 VH with G99Y, Y100L, Y101S, Y103S, Q104Y, W105A, Y106W, Y107N
VL: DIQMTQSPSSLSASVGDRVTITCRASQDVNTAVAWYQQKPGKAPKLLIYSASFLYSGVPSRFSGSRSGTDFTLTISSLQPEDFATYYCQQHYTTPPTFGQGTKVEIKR
B23: Trastuzumab HCDR3 variant ARFPVSSYAYGF (Fab, V domains shown)
VH: B1 VH with K98R, Y99F, G100P, I101V, D103S, G105A, F106Y, D107G, H108F
VL: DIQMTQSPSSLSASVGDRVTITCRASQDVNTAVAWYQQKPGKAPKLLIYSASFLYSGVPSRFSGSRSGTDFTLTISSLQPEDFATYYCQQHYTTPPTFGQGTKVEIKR
B24: Trastuzumab HCDR3 variant ARASWNWYGGDY (Fab, V domains shown)
VH: B1 VH with K98R, Y99A, G100S, I101W, S102N, D103W, F106G, H108Y
VL: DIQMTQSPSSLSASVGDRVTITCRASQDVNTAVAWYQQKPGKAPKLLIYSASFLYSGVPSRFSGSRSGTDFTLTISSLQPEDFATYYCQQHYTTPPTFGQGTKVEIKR
B25: Trastuzumab HCDR3 variant ARYGVYGYAMDY (Fab, V domains shown)
VH: B1 VH with K98R, I101V, S102Y, D103G, G105A, F106M, H108Y
VL: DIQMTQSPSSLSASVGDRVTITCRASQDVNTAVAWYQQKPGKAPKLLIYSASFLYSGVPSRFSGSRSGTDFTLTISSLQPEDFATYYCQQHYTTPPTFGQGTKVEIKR
B26: Trastuzumab HCDR3 variant ARYWYGSYVFDY (Fab, V domains shown)
VH: B1 VH with K98R, G100W, I101Y, S102G, D103S, G105V, H108Y
VL: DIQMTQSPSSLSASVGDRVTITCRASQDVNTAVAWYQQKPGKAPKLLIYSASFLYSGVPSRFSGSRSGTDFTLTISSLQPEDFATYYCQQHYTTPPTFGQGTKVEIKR
B27: Trastuzumab HCDR3 variant ARGYWWLYGFAY (Fab, V domains shown)
VH: B2 VH with Y101W, Y102W, Y103L, Q104Y, W105G, Y106F, Y107A
VL: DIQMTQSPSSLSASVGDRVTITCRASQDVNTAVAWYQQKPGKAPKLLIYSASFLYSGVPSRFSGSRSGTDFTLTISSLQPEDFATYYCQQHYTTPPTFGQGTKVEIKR
B28: Trastuzumab HCDR3 variant ARGYYHYYHYQY (Fab, V domains shown)
VH: B2 VH with Y102H, Q104Y, W105H, Y107Q
VL: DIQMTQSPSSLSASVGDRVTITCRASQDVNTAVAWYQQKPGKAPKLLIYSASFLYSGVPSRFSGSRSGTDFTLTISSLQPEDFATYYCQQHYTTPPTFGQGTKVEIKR
B29: Trastuzumab HCDR3 variant ARYGGAGYYLDY (Fab, V domains shown)
VH: B1 VH with K98R, I101G, S102A, D103G, G105Y, F106L, H108Y
VL: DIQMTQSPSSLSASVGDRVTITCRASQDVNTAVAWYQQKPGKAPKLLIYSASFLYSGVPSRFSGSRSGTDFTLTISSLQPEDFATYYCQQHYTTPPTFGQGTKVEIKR
B30: Trastuzumab HCDR3 variant ARASWYWYGGDK (Fab, V domains shown)
VH: B1 VH with K98R, Y99A, G100S, I101W, S102Y, D103W, F106G, H108K
VL: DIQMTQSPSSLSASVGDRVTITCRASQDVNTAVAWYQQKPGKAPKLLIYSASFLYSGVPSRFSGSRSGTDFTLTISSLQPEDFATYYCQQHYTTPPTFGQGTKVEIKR
B31: Trastuzumab HCDR3 variant ARYSYGAFYYSI (Fab, V domains shown)
VH: B2 VH with G99Y, Y100S, Y102G, Y103A, Q104F, W105Y, Y107S, Y108I
VL: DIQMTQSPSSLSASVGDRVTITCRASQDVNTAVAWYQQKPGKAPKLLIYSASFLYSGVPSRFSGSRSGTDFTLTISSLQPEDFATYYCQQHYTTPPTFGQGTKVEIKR
B32: Trastuzumab HCDR3 variant ARTTISSSSYTG (Fab, V domains shown)
VH: B1 VH with K98R, Y99T, G100T, D103S, Y104S, G105S, F106Y, D107T, H108G
VL: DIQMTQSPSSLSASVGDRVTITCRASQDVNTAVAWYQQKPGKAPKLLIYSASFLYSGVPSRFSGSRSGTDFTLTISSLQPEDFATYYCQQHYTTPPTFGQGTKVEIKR
B33: Trastuzumab HCDR3 variant ARYLEYTYAWDY (Fab, V domains shown)
VH: B1 VH with K98R, G100L, I101E, S102Y, D103T, G105A, F106W, H108Y
VL: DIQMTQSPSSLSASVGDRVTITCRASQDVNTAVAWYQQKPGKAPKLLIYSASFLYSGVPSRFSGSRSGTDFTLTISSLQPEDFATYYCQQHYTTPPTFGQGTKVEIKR
B34: Trastuzumab HCDR3 variant ARFLYGSYYFDY (Fab, V domains shown)
VH: B1 VH with K98R, Y99F, G100L, I101Y, S102G, D103S, G105Y, H108Y
VL: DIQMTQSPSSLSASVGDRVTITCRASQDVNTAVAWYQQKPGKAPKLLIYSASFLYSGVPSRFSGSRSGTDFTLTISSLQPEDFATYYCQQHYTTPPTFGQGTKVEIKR
B35: Trastuzumab HCDR3 variant ARYQAYDNSYGV (Fab, V domains shown)
VH: B2 VH with G99Y, Y100Q, Y101A, Y103D, Q104N, W105S, Y107G, Y108V
VL: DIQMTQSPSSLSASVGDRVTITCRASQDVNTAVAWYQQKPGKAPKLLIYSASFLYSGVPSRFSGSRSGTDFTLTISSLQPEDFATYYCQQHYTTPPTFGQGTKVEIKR
B36: Trastuzumab HCDR3 variant AKYGRSDYGFEH (Fab, V domains shown)
VH: B1 VH with I101R, D107E
VL: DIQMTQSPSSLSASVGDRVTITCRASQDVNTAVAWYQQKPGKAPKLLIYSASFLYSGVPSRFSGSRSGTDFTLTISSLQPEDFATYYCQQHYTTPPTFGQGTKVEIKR
B37: Trastuzumab HCDR3 variant ARYYGGLYYFDY (Fab, V domains shown)
VH: B1 VH with K98R, G100Y, I101G, S102G, D103L, G105Y, H108Y
VL: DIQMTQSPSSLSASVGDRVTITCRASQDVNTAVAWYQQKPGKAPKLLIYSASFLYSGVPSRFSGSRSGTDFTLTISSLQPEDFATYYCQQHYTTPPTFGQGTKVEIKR
B38: Trastuzumab HCDR3 variant ARYFGGSYAYGR (Fab, V domains shown)
VH: B1 VH with K98R, G100F, I101G, S102G, D103S, G105A, F106Y, D107G, H108R
VL: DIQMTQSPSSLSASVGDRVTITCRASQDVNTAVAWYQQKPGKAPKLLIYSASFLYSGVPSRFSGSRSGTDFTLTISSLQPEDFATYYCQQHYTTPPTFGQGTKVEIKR
B39: Trastuzumab HCDR3 variant ARMSYYFYYMDY (Fab, V domains shown)
VH: B2 VH with G99M, Y100S, Y103F, Q104Y, W105Y, Y106M, Y107D
VL: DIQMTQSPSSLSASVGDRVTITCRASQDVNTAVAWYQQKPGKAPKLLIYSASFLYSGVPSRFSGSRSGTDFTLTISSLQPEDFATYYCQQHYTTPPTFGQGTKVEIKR
B40: Trastuzumab HCDR3 variant ARYLSYSYAWDN (Fab, V domains shown)
VH: B1 VH with K98R, G100L, I101S, S102Y, D103S, G105A, F106W, H108N
VL: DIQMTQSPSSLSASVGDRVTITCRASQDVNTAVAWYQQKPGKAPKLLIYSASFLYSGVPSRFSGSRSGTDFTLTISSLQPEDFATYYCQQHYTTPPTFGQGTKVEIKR
B41: Trastuzumab HCDR3 variant ARYADYQFHFDN (Fab, V domains shown)
VH: B1 VH with K98R, G100A, I101D, S102Y, D103Q, Y104F, G105H, H108N
VL: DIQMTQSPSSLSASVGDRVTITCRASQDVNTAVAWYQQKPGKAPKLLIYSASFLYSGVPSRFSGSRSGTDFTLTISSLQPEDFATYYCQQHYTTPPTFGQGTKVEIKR
B42: Trastuzumab HCDR3 variant ARNYYGSYYFDY (Fab, V domains shown)
VH: B2 VH with G99N, Y102G, Y103S, Q104Y, W105Y, Y106F, Y107D
VL: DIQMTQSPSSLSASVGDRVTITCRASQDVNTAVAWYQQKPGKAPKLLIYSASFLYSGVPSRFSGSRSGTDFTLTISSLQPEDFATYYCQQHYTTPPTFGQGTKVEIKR
B43: Trastuzumab HCDR3 variant ARGYFGGYYFAY (Fab, V domains shown)
VH: B2 VH with Y101F, Y102G, Y103G, Q104Y, W105Y, Y106F, Y107A
VL: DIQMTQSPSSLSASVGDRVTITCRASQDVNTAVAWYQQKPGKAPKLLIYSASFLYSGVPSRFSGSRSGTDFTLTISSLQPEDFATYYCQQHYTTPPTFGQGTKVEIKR
B44: Trastuzumab HCDR3 variant ARNYVYWYGMTV (Fab, V domains shown)
VH: B2 VH with G99N, Y101V, Y103W, Q104Y, W105G, Y106M, Y107T, Y108V
VL: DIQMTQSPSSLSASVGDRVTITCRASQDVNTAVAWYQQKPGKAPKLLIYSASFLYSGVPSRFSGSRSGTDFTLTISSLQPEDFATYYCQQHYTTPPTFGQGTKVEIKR
B45: Trastuzumab HCDR3 variant ARWRDYYYYFDY (Fab, V domains shown)
VH: B2 VH with G99W, Y100R, Y101D, Q104Y, W105Y, Y106F, Y107D
VL: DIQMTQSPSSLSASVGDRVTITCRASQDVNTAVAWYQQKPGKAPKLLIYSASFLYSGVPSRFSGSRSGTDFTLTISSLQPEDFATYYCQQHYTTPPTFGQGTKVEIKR
B46: Trastuzumab HCDR3 variant ALLYGYYPSGVG (Fab, V domains shown)
VH: B2 VH with R98L, G99L, Y101G, Q104P, W105S, Y106G, Y107V, Y108G
VL: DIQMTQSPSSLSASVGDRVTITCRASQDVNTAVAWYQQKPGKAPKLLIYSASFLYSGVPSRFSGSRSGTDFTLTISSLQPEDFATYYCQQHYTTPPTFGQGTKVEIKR
B47: Trastuzumab HCDR3 variant AKYGTSNYGFSH (Fab, V domains shown)
VH: B1 VH with I101T, D103N, D107S
VL: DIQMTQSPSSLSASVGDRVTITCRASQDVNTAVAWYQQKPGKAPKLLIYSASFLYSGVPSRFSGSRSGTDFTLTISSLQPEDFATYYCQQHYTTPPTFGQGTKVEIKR
B48: Trastuzumab HCDR3 variant ARSYYGAYYFDY (Fab, V domains shown)
VH: B2 VH with G99S, Y102G, Y103A, Q104Y, W105Y, Y106F, Y107D
VL: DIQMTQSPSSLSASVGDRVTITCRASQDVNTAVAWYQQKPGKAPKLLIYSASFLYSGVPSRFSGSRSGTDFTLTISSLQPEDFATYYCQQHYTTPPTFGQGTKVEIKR
B49: Trastuzumab HCDR3 variant ARHHYSGYFHDV (Fab, V domains shown)
VH: B1 VH with K98R, Y99H, G100H, I101Y, D103G, G105F, F106H, H108V
VL: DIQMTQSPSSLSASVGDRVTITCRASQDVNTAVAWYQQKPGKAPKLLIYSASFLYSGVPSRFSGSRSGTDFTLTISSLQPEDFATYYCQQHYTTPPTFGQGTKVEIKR
B50: Trastuzumab HCDR3 variant ARYGRDYYYFDV (Fab, V domains shown)
VH: B1 VH with K98R, I101R, S102D, D103Y, G105Y, H108V
VL: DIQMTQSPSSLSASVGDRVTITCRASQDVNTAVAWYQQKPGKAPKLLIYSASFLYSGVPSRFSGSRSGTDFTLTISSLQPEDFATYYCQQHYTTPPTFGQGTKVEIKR
B51: Trastuzumab HCDR3 variant ARYHFSGYFMDA (Fab, V domains shown)
VH: B1 VH with K98R, G100H, I101F, D103G, G105F, F106M, H108A
VL: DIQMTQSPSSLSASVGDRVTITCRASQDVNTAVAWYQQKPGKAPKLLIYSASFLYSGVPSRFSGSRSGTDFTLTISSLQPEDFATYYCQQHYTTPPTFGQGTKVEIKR
B52: Trastuzumab HCDR3 variant AQSGSYFYPFSY (Fab, V domains shown)
VH: B1 VH with K98Q, Y99S, I101S, S102Y, D103F, G105P, D107S, H108Y
VL: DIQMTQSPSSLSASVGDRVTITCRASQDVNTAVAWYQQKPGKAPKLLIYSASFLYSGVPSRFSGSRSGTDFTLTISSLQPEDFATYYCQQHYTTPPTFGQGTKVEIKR
B53: Trastuzumab HCDR3 variant ARYGSGYYGLDY (Fab, V domains shown)
VH: B1 VH with K98R, I101S, S102G, D103Y, F106L, H108Y
VL: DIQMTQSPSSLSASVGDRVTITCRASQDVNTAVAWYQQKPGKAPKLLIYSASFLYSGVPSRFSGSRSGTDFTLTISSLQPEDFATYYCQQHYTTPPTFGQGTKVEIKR

Each binder was assayed against human epidermal growth factor receptor 2 (HER2) extracellular domain (human, UniProt P04626 23-629) (assay: SPR).

Binder | Kd [nM] | log(KD (M))
B1 | 207 | -6.68 log(M)
B2 | 33.6 | -7.47 log(M)
B3 | 78.1 | -7.11 log(M)
B4 | 179 | -6.75 log(M)
B5 | 113 | -6.95 log(M)
B6 | 56.6 | -7.25 log(M)
B7 | 114 | -6.94 log(M)
B8 | 74.3 | -7.13 log(M)
B9 | 177 | -6.75 log(M)
B10 | 117 | -6.93 log(M)
B11 | 29.9 | -7.53 log(M)
B12 | 54.8 | -7.26 log(M)
B13 | 86.6 | -7.06 log(M)
B14 | 30.3 | -7.52 log(M)
B15 | 40.2 | -7.4 log(M)
B16 | 59.4 | -7.23 log(M)
B17 | 59.9 | -7.22 log(M)
B18 | 65.5 | -7.18 log(M)
B19 | 28 | -7.55 log(M)
B20 | 61 | -7.22 log(M)
B21 | 210 | -6.68 log(M)
B22 | 28.9 | -7.54 log(M)
B23 | 36.2 | -7.44 log(M)
B24 | 92.9 | -7.03 log(M)
B25 | 53.3 | -7.27 log(M)
B26 | 78.3 | -7.11 log(M)
B27 | 172 | -6.77 log(M)

Binder | Kd [nM] | log(KD (M))
B28 | 95.1 | -7.02 log(M)
B29 | 32.4 | -7.49 log(M)
B30 | 37.8 | -7.42 log(M)
B31 | 70.4 | -7.15 log(M)
B32 | 248 | -6.61 log(M)
B33 | 218 | -6.66 log(M)
B34 | 135 | -6.87 log(M)
B35 | 102 | -6.99 log(M)
B36 | 133 | -6.88 log(M)
B37 | 34.4 | -7.46 log(M)
B38 | 28 | -7.55 log(M)
B39 | 48.9 | -7.31 log(M)
B40 | 42.6 | -7.37 log(M)
B41 | 39.6 | -7.4 log(M)
B42 | 120 | -6.92 log(M)
B43 | 130 | -6.88 log(M)
B44 | 27.5 | -7.56 log(M)
B45 | 33.8 | -7.47 log(M)
B46 | 262 | -6.58 log(M)
B47 | 27.6 | -7.56 log(M)
B48 | 202 | -6.7 log(M)
B49 | 148 | -6.83 log(M)
B50 | 106 | -6.97 log(M)
B51 | 103 | -6.99 log(M)
B52 | 83.2 | -7.08 log(M)
B53 | 51.5 | -7.29 log(M)
